Results as given in patent US20250066477A1.

Molecular target: human γδ TCR (Vγ9Vδ2) on human γδ T cells (human)
Assay: cell-based or functional assay

human γδ TCR (Vγ9Vδ2) on human γδ T cells (human), sequence (main, as listed by the source): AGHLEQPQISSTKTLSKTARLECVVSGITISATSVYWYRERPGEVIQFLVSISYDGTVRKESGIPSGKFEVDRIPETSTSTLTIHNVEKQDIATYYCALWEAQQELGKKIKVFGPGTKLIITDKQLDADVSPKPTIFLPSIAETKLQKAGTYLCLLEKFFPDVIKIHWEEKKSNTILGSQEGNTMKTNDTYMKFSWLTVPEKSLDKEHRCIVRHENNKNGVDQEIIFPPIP

B1: 1D7v158×5T4 bispecific γδTCR×5T4 molecule (bispecific antibody, part only; not given: anti-5T4 VHH, Fc halves, not shown: a dimerising Fc or GST)
chain, part: EVQLLESGGGEVQPGGSLRLSCVASRGKISQYRMGWYRQAPGKQRELVAHISNTGDAAEYVAPVKGRFTISRDNAKNALYLQMNSLRAEDTAVYKCNTVEDILAWGQGTLVTVEP
**Q.** For B1, which potency (EC50) of γδ T cell-mediated caspase-3/7 activation / cytotoxicity on A375 cells, against the molecule comprising 1D7v9 is on record?
**A.** 2 fold
